The target in one assay is T1, SARS-CoV-2 S1.
T1 construct: also called S1 subunit of the SARS-CoV-2 spike protein
Nature of the assay: monoclonal phage ELISA, drawn table of OD450 values. On the technique in general: ELISA stands for enzyme-linked immunosorbent assay.

The target of a further assay is T2, SARS-CoV-2 S trimer (SARS-CoV-2, UniProt P0DTC2 16-1213).
T2 construct: also called SARS-CoV-2 S protein; S homotrimer protein
The assay is described as above.

A further assay concerns the target T3, BSA (UniProt P02769 25-607).
T3 construct: also called control protein
Kind of assay: ELISA, 1 µg/ml coated BSA, 1 µg/ml VHH-hFc.

In assay [1] the target is SARS-CoV-2 spike on pseudovirus (SARS-CoV-2, UniProt P0DTC2 14-1273). Kind of assay: cell-based or functional assay.
Another assay has as its target T4, SARS-CoV S1 (SARS-CoV, UniProt P59594 14-667).
T4 construct: domain: S1; also called SARS-CoV S1 protein
Nature of the assay: ELISA, 1 µg/ml coated antigen, 1 µg/ml VHH-hFc.

The target in another assay is SARS-CoV-2 RBD (SARS-CoV-2, UniProt P0DTC2 319-541). Kind of assay: monoclonal VHH phage clone binding screen (FIG. 3A).

T3 sequence (P02769 25-607 limits assumed): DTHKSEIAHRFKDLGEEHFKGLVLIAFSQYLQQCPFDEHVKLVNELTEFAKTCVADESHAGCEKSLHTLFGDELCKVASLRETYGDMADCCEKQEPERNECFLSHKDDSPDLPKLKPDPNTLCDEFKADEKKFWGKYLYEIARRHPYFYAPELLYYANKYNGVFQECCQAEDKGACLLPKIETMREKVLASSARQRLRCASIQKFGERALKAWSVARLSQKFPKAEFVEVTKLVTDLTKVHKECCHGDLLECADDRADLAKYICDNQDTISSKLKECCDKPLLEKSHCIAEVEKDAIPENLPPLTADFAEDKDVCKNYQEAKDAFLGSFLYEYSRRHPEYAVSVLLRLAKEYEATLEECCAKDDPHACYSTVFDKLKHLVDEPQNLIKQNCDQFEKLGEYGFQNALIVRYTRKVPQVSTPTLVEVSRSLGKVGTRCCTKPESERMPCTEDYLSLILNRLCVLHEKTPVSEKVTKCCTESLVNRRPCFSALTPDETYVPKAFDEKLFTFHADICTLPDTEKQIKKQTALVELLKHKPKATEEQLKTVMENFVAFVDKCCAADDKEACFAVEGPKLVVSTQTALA

B1: NCI-CoV-1A10 (VHH)
VHH: AVQLVDSGGGSVQAGGSLRLSCAASGFTGSNYCLGWFRQAPGKEREGVAVIERDTGGTTYPNSLEGRFTIAQDNAKNMVYLHMRNLQPEDTGTYTCAAARNGDSFGGFTFWGQGTQVTVSS
In the case of B1, the OD450 came out at 0.84 with SARS-CoV-2 S1 and 0.63 with SARS-CoV-2 S trimer.

B2: 2C7 VHH-hFc (Fc fusion)
chain: EVQLVESGGGSVQTGGSLRLSCVVSGYDYSNYCVAWFRQAEGKNREGLAGINTHGAYTNYNTPAKGRFTISQDLTKNTFTLQMNSLTPEDTAIYYCAAYPEYCPRFSSSSWNNSAVWGQGTQVTVSS
notes: also called NCI-CoV-2C7 VHH-hFc fusion protein
As for B2, the binding result with BSA is “no binding (tested: 1 µg/ml)”. Besides, in assay [1], the “IC50, SARS-CoV-2 spike pseudovirus neutralization, repeated assay (FIGS. 9A-9F)” value (“IC50 … (FIGS. 9A-9F)” below) is 5.79 µM.

B3: NCI-CoV-8G12 (VHH)
VHH: AVQLVDSGGGSVQAGGSLRLSCAASGYTSNMNHMGWFRQAPGKGLEWVSGIYSDGSTYYGDSVKGRFTISRDNAKNMLYLQMNNLKPEDTAVYYCSGDGGGIGYNYWGQGTQVTVSS
For B3, the OD450 with SARS-CoV-2 S1 was 0.62; with SARS-CoV-2 S trimer, 0.6.

B4: NCI-CoV-8E1 (VHH)
VHH: EVQLVESGGGSVQAGGSLRLSCAASGFTFSSYYMSWVRQAPGKGLEWVSGIYSDGSTYYGDSVKGRFTISRDNAKNTLYLQMNSLKSEDTALYYCAIGTGTTRQGQGTQVTVSS
Take B4: the OD450 in the assay with SARS-CoV-2 S1 came to 0.51; with SARS-CoV-2 S trimer it was 0.58.

B5: NCI-CoV-2F7 (VHH)
VHH: QVKLEESGGGSVQSGGSLRLSCTVSRDTNTNINRCMGWFRQAPGKGLETVATINRDGTNTYYTDAVKGRFTISQDNVKNTVYLQMNNLTPEDTGTYICNAMGRGSGSRCDNWDPNYWGQGTQVTVSS
The molecule B5 came in with an OD450 with SARS-CoV-2 S trimer of 0.8.

B6: 2F7 VHH-hFc (Fc fusion)
chain: QVKLEESGGGSVQSGGSLRLSCTVSRDTNTNINRCMGWFRQAPGKGLETVATINRDGTNTYYTDAVKGRFTISQDNVKNTVYLQMNNLTPEDTGTYICNAMGRGSGSRCDNWDPNYWGQGTQVTVSS
notes: also called 2F7-hFc; NCI-CoV-2F7 VHH-hFc fusion protein
With B6, the binding result in the assay with BSA and with SARS-CoV S1 was “no binding (tested: 1 µg/ml)” each time.

B7: 7C4 VHH-hFc (Fc fusion)
chain: EVQLVESGGGLVQPGGSLRLSCTASGFTFSSYDMSWVRQAPGKGLEWVSGINSGGNKIYYADSVKGRFTISRDNAKNTLYLQMSSLKSEDTALYYCAIGRLYSVKGQGTQVTVSS
notes: also called NCI-CoV-7C4 VHH-hFc fusion protein
As for B7, the binding result is “no binding (tested: 1 µg/ml)” in the assay with BSA and “binds” in the assay with SARS-CoV S1. Also, the “IC50 … (FIGS. 9A-9F)” value in assay [1] was 4.29 µM.

B8: NCI-CoV-7C4 (VHH)
VHH: EVQLVESGGGLVQPGGSLRLSCTASGFTFSSYDMSWVRQAPGKGLEWVSGINSGGNKIYYADSVKGRFTISRDNAKNTLYLQMSSLKSEDTALYYCAIGRLYSVKGQGTQVTVSS
Take B8: the OD450 in the assay with SARS-CoV-2 S1 stood at 0.52; with SARS-CoV-2 S trimer, 0.76.

B9: 1A7 VHH-hFc (Fc fusion)
chain: QVQLVESGGGLVQPGGSLRLSCVASGFTFSSVDMSWVRQDPRKGLEWVSGINSGGGSTSYADSVKGQFTISRDNAKNTLYLEMNNLKPEDTAVYYCATGLAASGVWGQGTQVTVSS
notes: also called NCI-CoV-1A7 VHH-hFc fusion protein
In the case of B9, in the assay with BSA, the binding result was “no binding (tested: 1 µg/ml)”. In assay [1], the “IC50 … (FIGS. 9A-9F)” value was 0.428 µM.

B10: NCI-CoV-1A7 (VHH)
VHH: QVQLVESGGGLVQPGGSLRLSCVASGFTFSSVDMSWVRQDPRKGLEWVSGINSGGGSTSYADSVKGQFTISRDNAKNTLYLEMNNLKPEDTAVYYCATGLAASGVWGQGTQVTVSS
With B10, the OD450 with SARS-CoV-2 S trimer turned out to be 0.67.

B11: NCI-CoV-1H8 (VHH)
VHH: QVQLVESGGGLVQPGGSLRLSCAASGFTFSSYDMTWVRQAPGKGLEWVAAIYTADGSTYLDDSVKGRFTISQDNAKKTLYLQMTSLKVEDTAKYTCATGVGGSFSNWGRGTQVTVSS
With B11, the binding result with SARS-CoV-2 RBD is listed as “binds”.

B12: NCI-CoV-2B3 (VHH)
VHH: DVQLVESGGSSVQAGGSLRLSCAASGDSYRGNLMGWFRQAPGKAREGVAVIFTPNHNTYAADSVKGRFTISQDKAKNMVYLQMNSLKPEDTAMYYCATGWEGGLILSARAYRYWGQGTQVTVSS
In the case of B12, in the assay with SARS-CoV-2 RBD, the binding result was “binds”.

B13: NCI-CoV-1G11 (VHH)
VHH: QVQLVESGGGSVQAGGSLRLSCVASGDTNTRQYMGWFRQAPGKEREGVAVVHSDSGGTYYADSVKERFIIAQDNAKNTVYLTMNSLKVEDTAIYYCAAKTLEKPHFSVFSAASYDYWGQGTQVTVSS
B13 showed an OD450 in the assay with SARS-CoV-2 S1 of 0.68.

B14: NCI-CoV-1D7 (VHH)
VHH: QVKLEESGGGLVQPGGSLKLSCTASGFTFSSYNMSWVRQAPGKGLKWVSMIRSDGSNTYYLDSVKGRFTISRDNAKNTVYLQMNSLEPGDTAVYYCVAGRHATYWGQGTQVTVSS
With B14, the binding result in the assay with SARS-CoV-2 RBD is listed as “binds”.

B15: NCI-CoV-2F5 (VHH)
VHH: QVQLVESGGGLVQPGGSLKLSCTASGFTFSSYNMSWVRQAPGKGLKWVSMIRSDGSNTYYLDSVKGRFTISRDNAKNTVYLQMNSLEPGDTAVYYCVAGRHATYWGQGTQVTVSS
B15: in the assay with SARS-CoV-2 RBD, the binding result was “binds”.

B16: NCI-CoV-7E5 (VHH)
VHH: AVQLVESGGGSVQAGGSLRLSCAASGYTYSSNYMGWFRQAPGKELEWVSGIYSDGRTYYGDSVKGRFTISRDNAKNTVYLQMNSLKPEDTAMYYCAAGSWYNQWGYSMDYWGKGTQVTVSS
For the molecule B16, in the assay with SARS-CoV-2 S trimer, the OD450 came to 0.6.

B17: 8A4 VHH-hFc (Fc fusion)
chain: EVQLVESGGGLVQPGESLRLSCEASGFTFSSVYMSWVRQAPGKGLEWISTIHPAGGSTYYADSMKDRFTISRDNAKNTLYLQMNSLKSEDTALYYCIIEALSGYRGPGTQVTVSS
notes: also called 8A4-hFc; NCI-CoV-8A4 VHH-hFc fusion protein
B17: the values for the binding result in the assay with BSA and in the assay with SARS-CoV S1 were “no binding (tested: 1 µg/ml)” and “binds”, respectively.

B18: NCI-CoV-1H6 (VHH)
VHH: AVQLVDSGGGSVQAGGSLNLSCVASGTTLRNGCMAWFRQVPGKEREVVAIIIRATSYTDYADSVKGRFTISQDNAKNTVYLQMKSLTPEDTATYYCAATLYRVNCAKREFDKWGQGTQVTVSS
For B18, the OD450 with SARS-CoV-2 S1 turned out to be 0.82; with SARS-CoV-2 S trimer, 0.72.

B19: NCI-CoV-3E5 (VHH)
VHH: EVQLVESGGGLVQPGGSLRLSCAASGFAFSSTRMHWVRQAPGVGLEWVSFIDRTDGGIISYADSVRGRFTISRDNAKNTVYLQMDRLNAEDTAVYYCLKEGPYLDYWDAWGQGTQVTVSS
B19: the binding result with SARS-CoV-2 RBD is recorded as “binds”.

B20: NCI-CoV-1B5 (VHH)
VHH: DVQLVESGGGSVQAGGSLRLSCTGSRYTYSTYCMGWFRQAPGKEEEAVAIINSGGGEPYYGDSVKGRFTISQDRAKNTVYLQMDGLQPDDTAIYYCVAADSHNSRCYLGRSYVNYWGQGTQVTVSS
As for B20, the OD450 in the assay with SARS-CoV-2 S trimer amounted to 0.67.

B21: NCI-CoV-2D4 (VHH)
VHH: EVQLVESGGGSVQAGGSLRLSCAASAVTSNTNYVGWLRQVPGKEREGVAGIYYDGGVYYDESVKGRFTISRDNAQNTVFLQMNSLKPEDTAMYYCGAGRGYRYQYGSAWYKPGQYHYWGQGTQVTVSS
In the case of B21, the OD450 with SARS-CoV-2 S trimer came to 0.58.

B22: NCI-CoV-8A2 (VHH)
VHH: AVQLVDSGGGSVQAGGSLRLSCAASGYTYSICTMGWYRQAPGEGLEWVSGINADGSNTHYTDSVKGRFTISRDNAKKTLYLQMNSLKPEDTAIYYCAAHGTYDKYAPCGGFAGTYTYWGQGTQVTVSS
With B22, in the assay with SARS-CoV-2 S trimer, the OD450 was determined as 0.61.

B23: NCI-CoV-2A10 (VHH)
VHH: QVQLVESGGGSVQAGGSLRLSCAMSGLRVSNRCMGWFRQAPGKEREGVATICIGDGSTAYADSVKGRFTISQDNAKTTVFLEMNSLKPEDTAMYSCARAVRATAATLDPGNFFYWGQGTQVTVSS
Regarding B23, the binding result in the assay with SARS-CoV-2 RBD is “binds”.

B24: NCI-CoV-4C6 (VHH)
VHH: QVQLVESGGGSVQAGESLRLSCAVSGISSSTHYMAWFRQLPGKEREGLANIYTPAKVSLYANDVKGRFTISQDVTKNTVYLQMNSLKPEDTAMYYCAARRNAVCNAGSPLDFEFSYWGQGTQVTVSS
Take B24: the binding result in the assay with SARS-CoV-2 RBD is on record as “binds”.

B25: NCI-CoV-8A1 (VHH)
VHH: QVQLVESGGGSVQAGGSLRLSCAASGFTFSSYFMTWVRQAPGKGLEWVSTINSDGSNTYYADSVKGRFTISRDNAKNTLYLQMNSLKPEDTAMYYCNFRRMIGTSNLNYWGQGTQVTVSS
Take B25: in the assay with SARS-CoV-2 RBD, the binding result is reported as “binds”.

B26: NCI-CoV-8B6 (VHH)
VHH: AVQLVDSGGGSVQAGGSLRLSCAASGITYSTNCMGWFRQAPGKGLEWVSGINSDGRNTYYADSVKGRFTISQDNAKNTVYLQMNSLKPEDTAMYYCAAGSWYNQWGYSMDYWGQGTQVTVSS
Molecule B26 had an OD450 with SARS-CoV-2 S1 of 0.88. Moreover, the binding result with SARS-CoV-2 RBD is on record as “binds”.

B27: NCI-CoV-7A3 (VHH)
VHH: QVQLVESGGGSVQPGGSLRLSCVVSGYTSSSRYMGWFRQVPGKGLEWVSGIKRDGTNTYYADSVKGRFTISQDNAKNTVYLQMNSLKPEDTAMYYCAAGSWYNQWGYSMDYWGKGTQVTVSS
With B27, the OD450 worked out at 0.54 with SARS-CoV-2 S1 and 0.59 in the assay with SARS-CoV-2 S trimer.
